Measured values taken from the supplement of paper PMC9876800.

System: peptide library, one residue held at a place counted from the S/T acceptor
Assay: relative phosphorylation of the sub-library (ratio to the mean residue at this position); higher = residue favoured
Conditions: human
Method in brief: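 Relative sub-library phosphorylation is a ratio to the mean residue at the same position. Purified recombinant kinases were incubated under kinase-specific conditions with biotinylated degenerate peptide sub-libraries, each fixing one residue at one position around a central Ser/Thr, using 50 μM peptide and 50 μM ATP spiked with γ-32P-ATP for 90 min. Spots captured on streptavidin membranes were phosphorimaged and quantified by densitometry.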

Sequence of ROCK1, construct: aa1-535 (Q13464 1-535, looked up): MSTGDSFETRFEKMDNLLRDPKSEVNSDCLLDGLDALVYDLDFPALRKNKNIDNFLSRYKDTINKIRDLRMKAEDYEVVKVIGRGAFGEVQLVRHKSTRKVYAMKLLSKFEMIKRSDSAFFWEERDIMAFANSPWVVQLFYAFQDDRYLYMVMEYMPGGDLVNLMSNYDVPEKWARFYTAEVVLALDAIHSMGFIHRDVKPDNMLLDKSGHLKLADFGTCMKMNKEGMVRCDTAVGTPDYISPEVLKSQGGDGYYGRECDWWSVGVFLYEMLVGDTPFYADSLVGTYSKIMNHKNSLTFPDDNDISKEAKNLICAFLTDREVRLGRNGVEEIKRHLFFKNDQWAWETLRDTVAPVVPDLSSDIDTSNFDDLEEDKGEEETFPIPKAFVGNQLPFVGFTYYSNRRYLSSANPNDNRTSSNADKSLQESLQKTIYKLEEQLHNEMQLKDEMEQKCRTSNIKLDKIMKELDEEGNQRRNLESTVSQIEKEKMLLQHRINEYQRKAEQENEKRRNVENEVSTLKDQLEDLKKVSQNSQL
Sequence of MAK, construct: Full length (P20794 whole entry, looked up): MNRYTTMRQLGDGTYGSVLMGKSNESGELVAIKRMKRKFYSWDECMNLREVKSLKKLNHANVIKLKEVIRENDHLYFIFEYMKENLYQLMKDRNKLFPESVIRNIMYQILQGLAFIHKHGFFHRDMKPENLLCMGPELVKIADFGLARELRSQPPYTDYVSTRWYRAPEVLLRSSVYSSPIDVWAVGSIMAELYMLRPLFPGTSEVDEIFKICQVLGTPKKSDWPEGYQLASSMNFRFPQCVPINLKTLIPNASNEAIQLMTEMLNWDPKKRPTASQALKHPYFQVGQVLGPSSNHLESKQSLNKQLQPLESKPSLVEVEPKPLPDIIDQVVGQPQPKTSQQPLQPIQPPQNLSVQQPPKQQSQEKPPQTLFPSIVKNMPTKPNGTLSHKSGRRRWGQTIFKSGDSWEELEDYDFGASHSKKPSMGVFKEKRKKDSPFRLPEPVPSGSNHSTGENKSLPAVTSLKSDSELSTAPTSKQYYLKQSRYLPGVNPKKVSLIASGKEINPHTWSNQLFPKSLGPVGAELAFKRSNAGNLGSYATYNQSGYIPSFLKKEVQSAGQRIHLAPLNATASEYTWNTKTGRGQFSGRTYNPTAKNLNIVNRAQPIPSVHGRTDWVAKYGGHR

ROCK1, construct: aa1-535 (from UniProt Q13464)
relative phosphorylation
Conditions | at +1 | at +2 | at +3 | at +4 | at -1 | at -2 | at -3 | at -4 | at -5
A fixed | 0.632 | 0.883 | 1.01 | 0.721 | 0.745 | 0.528 | 0.549 | 0.906 | 0.953
D fixed | 0.366 | 0.412 | 0.54 | 0.674 | 0.384 | 0.203 | 0.219 | 0.44 | 0.454
E fixed | 0.358 | 0.39 | 0.488 | 0.656 | 0.303 | 0.188 | 0.231 | 0.525 | 0.462
F fixed | 0.758 | 0.678 | 1.11 | 1.13 | 0.579 | 0.42 | 0.343 | 0.653 | 0.703
G fixed | 0.706 | 0.773 | 1.42 | 1.06 | 1.03 | 0.534 | 0.577 | 1.1 | 1.06
H fixed | 0.963 | 1.13 | 1.23 | 1.15 | 1.23 | 1.12 | 1.35 | 1.15 | 1.19
I fixed | 1.43 | 1.13 | 0.81 | 0.866 | 0.52 | 0.268 | 0.28 | 0.532 | 0.603
K fixed | 1.1 | 1.6 | 1.08 | 1.35 | 2.43 | 2.69 | 2.63 | 2.22 | 2.44
L fixed | 1.57 | 1.2 | 1.01 | 1.06 | 1.02 | 0.359 | 0.316 | 0.571 | 0.495
M fixed | 1.64 | 0.968 | 0.913 | 0.999 | 1.06 | 0.448 | 0.352 | 0.732 | 0.586
N fixed | 1.38 | 0.854 | 0.988 | 1.15 | 1.14 | 0.906 | 0.575 | 0.89 | 0.878
P fixed | 0.224 | 0.727 | 1.15 | 0.994 | 0.816 | 0.43 | 0.412 | 0.891 | 0.931
Q fixed | 1.33 | 0.866 | 0.897 | 1.12 | 1.11 | 0.842 | 0.703 | 0.88 | 0.83
R fixed | 2.22 | 2.27 | 1.34 | 1.37 | 2.27 | 6.35 | 7.13 | 3.19 | 3.2
V fixed | 0.969 | 1.26 | 0.818 | 0.709 | 0.648 | 0.317 | 0.293 | 0.657 | 0.672
W fixed | 0.704 | 0.808 | 1.16 | 1.07 | 0.673 | 0.774 | 0.562 | 0.885 | 0.759
Y fixed | 0.648 | 1.05 | 1.03 | 0.927 | 1.05 | 0.623 | 0.485 | 0.777 | 0.778
pThr fixed | 0.432 | 0.607 | 0.507 | 0.658 | 0.315 | 0.378 | 0.392 | 0.712 | 0.745
pTyr fixed | 0.477 | 0.576 | 0.731 | 0.674 | 0.525 | 0.329 | 0.407 | 0.625 | 0.817

MAK, construct: Full length (from UniProt P20794)
relative phosphorylation
Conditions | at +1 | at +2 | at +3 | at +4 | at -1 | at -2 | at -3 | at -4 | at -5
A fixed | 2.18 | 1.07 | 0.904 | 0.995 | 1.19 | 0.647 | 0.835 | 1.16 | 1.16
D fixed | 0.175 | 1.06 | 0.653 | 0.701 | 0.423 | 0.165 | 0.276 | 0.752 | 0.824
E fixed | 0.155 | 0.749 | 0.523 | 0.677 | 0.32 | 0.18 | 0.251 | 0.781 | 0.745
F fixed | 0.321 | 0.762 | 0.858 | 0.704 | 0.498 | 0.159 | 0.201 | 0.633 | 0.864
G fixed | 2.02 | 1.56 | 1.51 | 1.49 | 1.8 | 0.63 | 0.653 | 1.33 | 1.5
H fixed | 0.308 | 1.09 | 1.32 | 1.19 | 0.982 | 0.251 | 0.428 | 0.856 | 0.994
I fixed | 0.431 | 0.736 | 0.785 | 0.785 | 0.315 | 0.476 | 0.291 | 0.647 | 0.745
K fixed | 0.324 | 1.01 | 1.37 | 1.21 | 1.92 | 0.779 | 0.872 | 1.06 | 0.989
L fixed | 0.394 | 1.03 | 1.06 | 0.853 | 0.638 | 0.632 | 0.356 | 0.707 | 0.723
M fixed | 0.445 | 0.979 | 0.901 | 0.878 | 1.07 | 0.406 | 0.309 | 0.803 | 0.855
N fixed | 0.322 | 1.05 | 0.924 | 0.995 | 0.94 | 0.313 | 0.382 | 0.732 | 0.726
P fixed | 7.71 | 0.986 | 1.21 | 1.36 | 1.51 | 8.65 | 2.32 | 1.8 | 1.9
Q fixed | 0.393 | 0.939 | 0.904 | 0.898 | 1.13 | 0.394 | 0.513 | 0.898 | 1.03
R fixed | 0.759 | 1.08 | 1.47 | 1.48 | 2.24 | 2.32 | 8.51 | 2.58 | 1.36
V fixed | 0.455 | 0.907 | 0.978 | 0.877 | 0.63 | 0.631 | 0.302 | 0.81 | 0.821
W fixed | 0.329 | 0.988 | 0.801 | 1.01 | 0.616 | 0.192 | 0.238 | 0.725 | 0.725
Y fixed | 0.274 | 1 | 0.831 | 0.908 | 0.788 | 0.178 | 0.254 | 0.725 | 1.04
pThr fixed | 0.401 | 0.534 | 0.748 | 0.735 | 0.265 | 0.377 | 0.408 | 0.851 | 0.905
pTyr fixed | 0.326 | 0.839 | 0.706 | 0.678 | 0.338 | 0.212 | 0.365 | 0.759 | 0.912
